Where a chain is given by its changes, count along the chain named. Several values for one entry are separate records, joined by “and”; a condition that tells them apart may be missing. Equal values may be shown once.
B1: vhh_tstrep_sars2_pjl1_L_76 (VHH)
VHH: QVQLQESGGGLVQAGGSLRLSCAASGRTFSEYAMGWFRQAPGKEREFVATISWSGGATYETDSVKGRFTISRDNAKNTVYLQMNSLKPDDTAVYYCAAAGLGTVVSEWDYDYDYWGQGTQVTVSS
B2: vhh_tstrep_sars2_pjl1_L_75 (VHH)
VHH: B1 VHH with E60S
B3: vhh_tstrep_sars2_pjl1_L_77 (VHH)
VHH: B1 VHH with E60H
B4: vhh_tstrep_sars2_pjl1_L_117 (VHH)
VHH: B1 VHH with E60H, D62W
B5: vhh_tstrep_sars2_pjl1_L_121 (VHH)
VHH: B1 VHH with G56W, E60H
B6: vhh_tstrep_sars2_pjl1_L_129 (VHH)
VHH: B1 VHH with E60H, D62T
B7: vhh_tstrep_sars2_pjl1_L_119 (VHH)
VHH: B1 VHH with I51E, E60H
B8: vhh_tstrep_sars2_pjl1_L_118 (VHH)
VHH: B1 VHH with Y59G, E60H
B9: vhh_tstrep_sars2_pjl1_L_127 (VHH)
VHH: B1 VHH with T58A, E60H
B10: vhh_tstrep_sars2_pjl1_L_80 (VHH)
VHH: B1 VHH with E60Y, D62R
B11: vhh_tstrep_sars2_pjl1_L_114 (VHH)
VHH: B1 VHH with E60H, A98P
B12: vhh_tstrep_sars2_pjl1_L_112 (VHH)
VHH: B1 VHH with E60H, S63T
B13: vhh_tstrep_sars2_pjl1_L_113 (VHH)
VHH: B1 VHH with E60H, Y110F
B14: vhh_tstrep_sars2_pjl1_L_150 (VHH)
VHH: B1 VHH with T58G, E60H
B15: vhh_tstrep_sars2_pjl1_L_144 (VHH)
VHH: B1 VHH with I51S, E60H
B16: vhh_tstrep_sars2_pjl1_L_27 (VHH)
VHH: B1 VHH with A57S, E60Y, G102A
B17: vhh_tstrep_sars2_pjl1_L_4 (VHH)
VHH: B1 VHH with A57S, E60Y, A99G
B18: vhh_tstrep_sars2_pjl1_L_126 (VHH)
VHH: B1 VHH with T58S, E60H
B19: vhh_tstrep_sars2_pjl1_L_124 (VHH)
VHH: B1 VHH with A57G, E60H
B20: vhh_tstrep_sars2_pjl1_L_128 (VHH)
VHH: B1 VHH with W53P, E60H
B21: vhh_tstrep_sars2_pjl1_L_130 (VHH)
VHH: B1 VHH with E60H, G66A
B22: vhh_tstrep_sars2_pjl1_L_135 (VHH)
VHH: B1 VHH with E60H, G102W
B23: vhh_tstrep_sars2_pjl1_L_123 (VHH)
VHH: B1 VHH with S54I, E60H
B24: vhh_tstrep_sars2_pjl1_L_115 (VHH)
VHH: B1 VHH with E60H, G100D
B25: vhh_tstrep_sars2_pjl1_L_120 (VHH)
VHH: B1 VHH with E60H, K65D
B26: vhh_tstrep_sars2_pjl1_L_116 (VHH)
VHH: B1 VHH with T50S, E60H
B27: vhh_tstrep_sars2_pjl1_L_81 (VHH)
VHH: B1 VHH with E60Y, G100R
B28: vhh_tstrep_sars2_pjl1_L_85 (VHH)
VHH: B1 VHH with E60Y, G102E
B29: vhh_tstrep_sars2_pjl1_L_82 (VHH)
VHH: B1 VHH with E60Y, G100E
B30: vhh_tstrep_sars2_pjl1_L_1 (VHH)
VHH: B1 VHH with A57S, E60Y, A97G
B31: vhh_tstrep_sars2_pjl1_L_24 (VHH)
VHH: B1 VHH with A57S, Y59A, E60Y
B32: vhh_tstrep_sars2_pjl1_L_32 (VHH)
VHH: B1 VHH with A57S, E60Y, E107A
B33: vhh_tstrep_sars2_pjl1_L_22 (VHH)
VHH: B1 VHH with W53A, A57S, E60Y
B34: vhh_tstrep_sars2_pjl1_L_38 (VHH)
VHH: B1 VHH with A57S, E60Y, D109A
B35: vhh_tstrep_sars2_pjl1_L_40 (VHH)
VHH: B1 VHH with A57S, E60Y, D62A
B36: vhh_tstrep_sars2_pjl1_L_46 (VHH)
VHH: B1 VHH with A57S, E60Y, W108A
B37: vhh_tstrep_sars2_pjl1_L_139 (VHH)
VHH: B1 VHH with E60H, Y112F
B38: vhh_tstrep_sars2_pjl1_L_125 (VHH)
VHH: B1 VHH with E60H, G102R
B39: vhh_tstrep_sars2_pjl1_L_133 (VHH)
VHH: B1 VHH with E60H, Y114S
B40: vhh_tstrep_sars2_pjl1_L_132 (VHH)
VHH: B1 VHH with S54G, E60H
B41: vhh_tstrep_sars2_pjl1_L_137 (VHH)
VHH: B1 VHH with E60H, E107A

Molecular target: SARS-CoV-2 Spike RBD-His Tag, Sino Biological (SARS-CoV-2)

B1 and B2 are within 0.2 log units of each other in xmid (log10): -0.184 for the first, -0.0338 for the second.

Work on B3 yielded a xmid (log10) of -1.22.

Molecular target: SARS-CoV-2 Spike RBD-His Tag, Sino Biological (SARS-CoV-2)
Remark: another data set of the same source

Compared with B4, B5 is higher in xmid (log10): -1.7 for the first, -0.224 for the second.

Going from B6 to B7, the xmid (log10) rises from -1.34 to 0.385.

Compared with B8, B9 is lower in xmid (log10): 0.784 for the first, 0.479 for the second.

Molecular target: SARS-CoV-2 Spike RBD-His Tag, Sino Biological (SARS-CoV-2)
Remark: another data set of the same source

Compared with B10, B2 is higher in xmid (log10): -0.61 for the first, 0.0467 for the second.

B3 gave a xmid (log10) of -1.42.

Molecular target: SARS-CoV-2 Spike RBD-His Tag, Sino Biological (SARS-CoV-2)
Remark: another data set of the same source

Compared with B11, B12 is lower in xmid (log10): 0.263 for the first, -1.14 for the second.

Binder B13 has a xmid (log10) of -0.0032.

Molecular target: SARS-CoV-2 Spike RBD-His Tag, Sino Biological (SARS-CoV-2)
Remark: another data set of the same source

First: B14
Second: B15
The xmid (log10) of the first is higher: 0.879 for the first, -0.0515 for the second.

Molecular target: CoV-2 (SARS-CoV-2)

First: B16
Second: B17
The xmid (log10) of the first is lower: 0.407 for the first, 0.673 for the second.

Molecular target: SARS-CoV-2 Spike RBD-His Tag, Sino Biological (SARS-CoV-2)
Remark: another data set of the same source

Compared with B18, B19 is lower in xmid (log10): -0.398 for the first, -1.89 for the second.

Compared with B5, B13 is higher in xmid (log10): -0.645 for the first, 0.334 for the second.

Compared with B8, B9 is lower in xmid (log10): 0.412 for the first, -0.006 for the second.

Molecular target: SARS-CoV-2 Spike RBD-His Tag, Sino Biological (SARS-CoV-2)
Remark: another data set of the same source

B18 and B20 are within 0.2 log units of each other in xmid (log10): 0.489 for the first, 0.384 for the second.

Going from B21 to B22, the xmid (log10) falls from 0.204 to -1.5.

B23 showed a xmid (log10) of 0.9.

Molecular target: SARS-CoV-2 Spike RBD-His Tag, Sino Biological (SARS-CoV-2)
Remark: another data set of the same source

First: B4
Second: B11
The xmid (log10) of the first is lower: -1.5 for the first, 0.526 for the second.

Compared with B12, B14 is higher in xmid (log10): -1.27 for the first, 0.171 for the second.

Molecular target: SARS-CoV-2 Spike RBD-His Tag, Sino Biological (SARS-CoV-2)
Remark: another data set of the same source

Going from B24 to B25, the xmid (log10) falls from -0.277 to -0.493.

Compared with B26, B3 is lower in xmid (log10): -0.0157 for the first, -1.54 for the second.

Molecular target: SARS-CoV-2 Spike RBD-His Tag, Sino Biological (SARS-CoV-2)
Remark: another data set of the same source

Going from B1 to B27, the xmid (log10) rises from -0.368 to 1.06.

First: B28
Second: B29
The xmid (log10) of the first is lower: -0.815 for the first, 0.109 for the second.

Molecular target: CoV-2 (SARS-CoV-2)
Remark: another data set of the same source

First: B30
Second: B17
The xmid (log10) of the first is higher: 0.321 for the first, -0.0058 for the second.

Molecular target: CoV-2 (SARS-CoV-2)
Remark: another data set of the same source

First: B31
Second: B16
The xmid (log10) of the first is higher: 0.908 for the first, 0.577 for the second.

First: B32
Second: B33
The xmid (log10) of the first is lower: 0.532 for the first, 0.892 for the second.

Binder B34 has a xmid (log10) of 0.854.

Molecular target: CoV-2 (SARS-CoV-2)
Remark: another data set of the same source

Compared with B16, B35 is lower in xmid (log10): 0.178 for the first, -0.664 for the second.

Going from B36 to B34, the xmid (log10) falls from 1.65 to -0.286.

Molecular target: CoV-2 (SARS-CoV-2)
Remark: another data set of the same source

Going from B30 to B32, the xmid (log10) falls from 0.903 to 0.239.

Compared with B33, B34 is lower in xmid (log10): 1.08 for the first, 0.0417 for the second.

Molecular target: SARS-CoV-2 Spike RBD-His Tag, Sino Biological (SARS-CoV-2)
Remark: another data set of the same source

First: B20
Second: B6
The xmid (log10) of the first is higher: -0.2 for the first, -1.34 for the second.

Going from B21 to B3, the xmid (log10) falls from -0.532 to -1.54.

Molecular target: SARS-CoV-2 Spike RBD-His Tag, Sino Biological (SARS-CoV-2)
Remark: another data set of the same source

Compared with B24, B3 is lower in xmid (log10): 0.0337 for the first, -1.92 for the second.

Molecular target: SARS-CoV-2 Spike RBD-His Tag, Sino Biological (SARS-CoV-2)
Remark: another data set of the same source

With B3 the xmid (log10) was -1.66 and -1.72.

Binder B37 has a xmid (log10) of 0.366.

Molecular target: SARS-CoV-2 Spike RBD-His Tag, Sino Biological (SARS-CoV-2)
Remark: another data set of the same source

Compared with B10, B27 is higher in xmid (log10): -0.743 for the first, 0.479 for the second.

Compared with B28, B29 is higher in xmid (log10): -1.05 for the first, 0.155 for the second.

Molecular target: SARS-CoV-2 Spike RBD-His Tag, Sino Biological (SARS-CoV-2)
Remark: another data set of the same source

B38 and B25 are within 0.2 log units of each other in xmid (log10): 0.108 for the first, -0.0348 for the second.

B7 and B26 are within 0.2 log units of each other in xmid (log10): 0.39 for the first, 0.288 for the second.

B3 showed a xmid (log10) of -1.49.

Molecular target: CoV-2 (SARS-CoV-2)
Remark: another data set of the same source

Compared with B31, B32 is lower in xmid (log10): 0.582 for the first, -0.271 for the second.

B33 was tested, and the xmid (log10) was 0.688.

Molecular target: CoV-2 (SARS-CoV-2)
Remark: another data set of the same source

First: B30
Second: B31
The xmid (log10) of the first is higher: 0.839 for the first, 0.515 for the second.

First: B35
Second: B17
The xmid (log10) of the first is lower: 0.226 for the first, 0.752 for the second.

Molecular target: SARS-CoV-2 Spike RBD-His Tag, Sino Biological (SARS-CoV-2)
Remark: another data set of the same source

Compared with B38, B19 is lower in xmid (log10): 0.297 for the first, -1.84 for the second.

B39 and B3 are within 0.2 log units of each other in xmid (log10): -1.46 for the first, -1.54 for the second.

Molecular target: SARS-CoV-2 Spike RBD-His Tag, Sino Biological (SARS-CoV-2)
Remark: another data set of the same source

Going from B40 to B15, the xmid (log10) rises from 0.0703 to 0.491.

Going from B3 to B41, the xmid (log10) rises from -1.6 to -0.676.

Molecular target: SARS-CoV-2 Spike RBD-His Tag, Sino Biological (SARS-CoV-2)
Remark: another data set of the same source

First: B39
Second: B40
The xmid (log10) of the first is lower: -1.7 for the first, -0.157 for the second.

Compared with B22, B23 is higher in xmid (log10): -1.65 for the first, 0.157 for the second.

Work on B41 yielded a xmid (log10) of -1.3.

Source: patent publication US20240059759A1
